From patent publication EP1364964A1, “Radiolabeled annexingalactose conjugates” (NEORX CORPORATION, priority 1994, dated 1995)

Columns and labels:
[1] = system: atrial thrombi and injured left atrium; design: species or system Yorkshire swine; details: in vivo
Experimental: • A. Animal Preparation - LA Vascular Thrombi. […] Continuous electrocardiographic monitoring was instituted using alligator clip electrodes. […] The incision was held open by a thoracotomy retractor. […] The cross-clamp was removed 10 minutes later. […] The intravenous line was then flushed with saline. […] Res. Commun. 80: 849-57, 1978). […] Image acquisition was performed as described below. […] A final blood sample was taken for well counting. […] Open Chest Sham. […] Closed Chest Sham. In seven animals, an ear intravenous line was established. No thoracotomy was performed. […] Ovalbumin. […] Indium Platelets. […] J. Cardiol. […] Non-specific Tc-Labeled Antibody. […] Imaging. […] The cobalt marker was then removed. […] These were followed by a 10 minute tomographic acquisition. […] Each image was scored as positive, equivocal or negative. […] Each vial was counted for 1 minute.
For the injured tissues and thrombi, multiple specimens were usually taken from the same animal. In those cases, the maximum ratio for any one specimen is reported, as well as the average of all specimens taken. The maximum for each animal was averaged across all animals and is reported as the Maximum Anx-V Ratio.

[2] = in vivo
Experimental: • A. Animal Preparation - LA Vascular Thrombi. Fasting 25-30 kg Yorkshire swine were sedated with intramuscular Telazol (5-10 mg/kg) (commercially available from AVECO Co.) and commercially available Atropine (1 mg, Elkins-Sinn, Inc., Cherry Hill, NJ). Surital (200 mg) (commercially available from Abbott Laboratories) anaesthesia was administered intravenously. The animals were intubated and given inhalation anaesthesia of 1.5-2% halothane (commercially available from Abbott Laboratories) and O2 sufficient to obtain a deep level of anesthesia and physiologic arterial blood gases. Continuous electrocardiographic monitoring was instituted using alligator clip electrodes. A cut down in the neck region was conducted, and an 8 french catheter (USCI Co, Billerica, MA) was placed in the right common carotid artery for blood pressure and arterial blood gas monitoring as well as for blood sampling. The swine were placed in a right lateral decubitus position, and a lateral thoracotomy was performed to expose the heart. The incision was held open by a thoracotomy retractor. The pericardium was opened, and the left atrial appendage was isolated from the left atrium by a vascular cross- clamp. Rubber tipped forceps were used to gently crush the appendage. Five minutes later, ricinoleate (1 mg, ICN Pharmaceuticals, Costa Mesa, CA) and thrombin (50 mg, Johnson and Johnson Co., Arlington, Texas) were injected into the LAA (left atrial appendage) using a 27 Ga needle. The cross-clamp was removed 10 minutes later. One hour after the crush injury, Tc-99m-annexin V, prepared in accordance with Example I above, was administered as an intravenous bolus dose in an ear vein. The intravenous line was then flushed with saline. In 7 animals, I-125 labeled ovalbumin was administered as a non-specific control preparable, for example, by the procedure described by Fraker et al., Biochem. Biophys. Res. Commun. 80: 849-57, 1978). Briefly, I-125-radiolabeled ovalbumin was prepared by the Iodogen method, employing 600 µg ovalbumin (Sigma Chemical Co., St. Louis, Missouri) and NaI-125 (2mCi, 0.92 nmol). Image acquisition was performed as described below. At the end of the experimental procedure (generally about 150 minutes), the animals were sacrificed by an intravenous bolus dose of 80 mEq of KCl while the animals were still under general anaesthetic. A final blood sample was taken for well counting. The heart was rapidly excised, washed free of blood and dissected into samples for well counting. Additional samples of carotid artery, lung, liver, spleen, muscle and kidney were obtained in some animals. • B. Controls. Five different types of controls were used: open chest sham; closed chest sham; ovalbumin; indium platelets; and non-specific Tc-99m-labeled antibody. • 1. Open Chest Sham. In three animals, the heart was exposed as above, but the left atrium was not isolated, crushed or injected with ricinoleate/thrombin. Marker images with a cobalt marker were performed as described below, and the Tc-99m-annexin V was injected 30-60 minutes after LAA exposure. Imaging and sample acquisition were identical to that described in A above. • 2. Closed Chest Sham. In seven animals, an ear intravenous line was established. No thoracotomy was performed. Sedation and anesthesia were identical to that described in A above. The Tc-99m-annexin V (+/other control radionuclides, such as I-125 ovalbumin or In-111-platelets) was administered and image acquisition was performed. • 3. Ovalbumin. I-125 ovalbumin was administered in 7 animals as a negative control protein. […] Indium Platelets. In-111 platelet labeling was performed in 7 animals as a positive well counting label. In-111 radiolabeled platelets were prepared in accordance with the procedure described by Stratton et al., Am. J. Cardiol. 47: 874, 1981 and Stratton et al., Circulation 69: 561, 1984. Imaging was not attempted because of the long serum half-life of the In-111-platelets. • 5. Non-specific Tc-Labeled Antibody. […]

[3] = system: freshly isolated human platelets; assay: competition assay: inhibition of binding of unmodified 125I radiolabeled annexin V to platelets
Experimental: The ability of galactose-modified annexin V to bind to activated platelets was assessed by determining its ability to inhibit the binding of unmodified, ^125I radiolabeled annexin V to freshly isolated human platelets, following the method of Thiagarajan and Tait J. Biol. Chem. 265: 17240-43, 1990.

Molecule | highest non-target localization [1] | %ID/g a [2] [%ID/g] | %ID/g b [2] [%ID/g] | ID/g cleared in the slower b phase [2] [%] | a + b [2] | t1/2 a [2] [min] | t1/2 b [2] [min] | Competition (% of control) ([3]; absolute value (left column), inhibition of 125I annexin V binding to human platelets) | Competition (% of control) ([3]; value normalized to 100% for unmodified annexin V (right column))
Tc-99m-annexin V: annexin V radiolabeled with Tc-99m by a diamide dimercaptide N2S2 chelate (Example I) | kidney | 0.0389 | 0.0300 | 43 | 0.0689 | 9.6 | 46 |  | 
1.1: galactose-modified annexin V, substitution ratio 1.1:1 (offering ratio 75:1) (conjugate, UniProt P08758 2-320, looked up, galactose-modified) Annexin A5: AQVLRGTVTDFPGFDERADAETLRKAMKGLGTDEESILTLLTSRSNAQRQEISAAFKTLFGRDLLDDLKSELTGKFEKLIVALMKPSRLYDAYELKHALKGAGTNEKVLTEIIASRTPEELRAIKQVYEEEYGSSLEDDVVGDTSGYYQRMLVVLLQANRDPDAGIDEAQVEQDAQALFQAGELKWGTDEEKFITIFGTRSVSHLRKVFDKYMTISGFQIEETIDRETSGNLEQLLLAVVKSIRSIPAYLAETLYYAMKGAGTDDHTLIRVMVSRSEIDLFNIRKEFRKNFATSLYSMIKGDTSGDYKKALLLLCGEDD |  |  |  |  |  |  |  | 21.4 % of control | 28.7 % of control
